Target: PCNA3_(N106R)-P450cam fusion protein (Sulfolobus solfataricus | Pseudomonas putida)

- substrate-dependent O2 consumption rate (monooxygenase activity) of PUPPET-P4 at 18 nM complex, 25°C: 6.5 µM/min
Substance: PCNA2-G4S(P5)4G4S-PdX
